The test system of the series is SaraC (Stereum hirsutum FP-91666). Description: SPR. The note with it: S-adenosylmethionine (16 mM, protein pre-incubation), SPR Biacore T200, CM5 anti-His capture, 1x PBS with 5% DMSO pH 7.5 (protein/SAM mix), oligos in 1x PBS, 25 C, 5 uL/min, analyte 0.25-4 uM (Fig. 1 legend …).

Experimental findings from publication PMC9769804 are described below.

In general, Kd refers to the concentration at which binding is half-saturated. Higher therefore signals a looser complex. Where the note is “5mC at position 5”, GATTCCTTC [Oligo7291] gave a Kd of 662 nM.
ATCCAGAGCGAGCCTATTACG [Oligo1309] returned a Kd (called weak, 6mA at positions 7 and 11) of 1670 nM.
Regarding CGATCGGATTTGACGGTT [Oligo5564], for the setting “two methyl groups, printed mG at positions 7 and 12, text calls these oligos 5mC or 6mA, so methylated base is ambiguous”, the Kd turned out to be 821 nM.
